In patent publication US20210388330A1 one finds KD1, KD2 and fold reduction of binding affinity of KD2 against IDS data, which are given here for two molecules.

Assay [1] concerns the target soluble mannose-6-phosphate receptor (sM6PR). Kind of assay: Biacore (SPR) analysis of binding to sM6PR, two KD values fitted. For orientation: In SPR one partner is held on a chip, and binding of the other changes the refractive index at the surface.
Assay [2] has the same target. Kind of assay: Biacore (SPR), dpIDS compared with untreated IDS.

B1: Recombinant iduronate-2-sulfatase (IDS), produced in human HT-1080 cells (enzyme)
chain: SETQANSTTDALNVLLIIVDDLRPSLGCYGDKLVRSPNIDQLASHSLLFQNAFAQQAVCAPSRVSFLTGRRPDTTRLYDFNSYWRVHAGNFSTIPQYFKENGYVTMSVGKVFHPGISSNHTDDSPYSWSFPPYHPSSEKYENTKTCRGPDGELHANLLCPVDVLDVPEGTLPDKQSTEQAIQLLEKMKTSASPFFLAVGYHKPHIPFRYPKEFQKLYPLENITLAPDPEVPDGLPPVAYNPWMDIRQREDVQALNISVPYGPIPVDFQRKIRQSYFASVSYLDTQVGRLLSALDDLQLANSTIIAFTSDHGWALGEHGEWAKYSNFDVATHVPLIFYVPGRTASLPEAGEKLFPYLDPFDSASQLMEPGRQSMDLVELVSLFPTLAGLAGLQVPPRCPVPSFHVELCREGKNLLKHFRFRDLEEDPYLPGNPRELIAYSQYPRPSDIPQWNSDKPSLKDIKIMGYSIRTIDYRYTVWVGFNPDEFLANFSDIHAGELYFVDSDPLQDHNMYNDSQGGDLFQLLMP
modifications: mannose-6-phosphate residues on N-linked oligomannose glycans; M6P content 2.56 pmol M6P/pmol protein (Table 3)
For the molecule B1, in assay [1], the KD1 was 58.2 nM and the KD2 was 0.813 nM.

B2: CIP-treated dephosphorylated iduronate-2-sulfatase (dpIDS) (enzyme)
chain: B1 chain
modifications: dephosphorylated with acrylic bead-bound calf intestine alkaline phosphatase; M6P content reduced to 0.15 pmol M6P/pmol protein (Table 3)
In assay [1], B2 yielded a KD1 of 32.1 nM and a KD2 of 5.94 nM. This molecule came in with a fold reduction of binding affinity of KD2 against IDS in assay [2] of 7 fold.
